Assay results from paper PMC11532494 (Nature Communications, 2024).
Values joined by “and” are separate entries in the source; they are usually repeats but may differ in a detail not shown here. Equal entries are not always repeated. Where two headings read alike, the source gives them in different places. No end group written: not given here. *: point of attachment. AMC = Cc1cc(=O)oc2cc(N*)ccc12

How the values were obtained:
[1] = target: LpApaH (3) (Legionella pneumophila, UniProt A0A2S6EWV0); type: biochemical
[2] = target: KpHdaH (1b) (Klebsiella pneumoniae, UniProt A0A377Z5F6); type: biochemical
[3] = tested on: Controls; type: biochemical
[4] = tested on: Controls; type: biochemical; remark: listed apart in the source
[5] = target: LcApaH (3) (Legionella cherrii, UniProt A0A0W0SGS1); type: biochemical
[6] = tested on: VcHdaH (5b); type: biochemical, Vibrio cholerae
[7] = target: T1, BsAcuC (2c) (Bacillus subtilis, UniProt P39067); assay: Substrate screening assay (acyl-peptide-AMC); type: biochemical
T1 construct: made in house; host or cells: E. coli BL21 (DE3)
T1 sequence (P39067 1-387): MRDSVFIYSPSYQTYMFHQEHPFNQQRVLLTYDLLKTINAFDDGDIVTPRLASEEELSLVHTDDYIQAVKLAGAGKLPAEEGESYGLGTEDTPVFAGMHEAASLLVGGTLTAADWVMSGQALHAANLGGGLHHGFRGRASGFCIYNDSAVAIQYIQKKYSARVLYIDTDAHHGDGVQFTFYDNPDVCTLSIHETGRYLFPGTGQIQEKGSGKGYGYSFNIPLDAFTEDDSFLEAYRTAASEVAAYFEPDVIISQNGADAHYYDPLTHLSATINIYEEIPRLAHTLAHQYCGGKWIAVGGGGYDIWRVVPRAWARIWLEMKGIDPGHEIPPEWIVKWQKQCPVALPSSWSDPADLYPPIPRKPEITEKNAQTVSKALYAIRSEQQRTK
Procedure: (§1) Experiments with SIRT2 and SIRT5 were supplemented with NAD^+ (500 µM). Thereafter, a solution of trypsin (25 µL, 5.0 mg/mL; final concentration of 2.5 mg/mL) was added, and the development of the assay was allowed to proceed for 90 min at room temperature before fluorescence analysis. […] To this end, a single category is given to all conversions >48% on the heatmap. […] For the H4-derived peptide LGKbio no positive control was available.

[8] = target: PsApaH (4) (Pseudomonas sp. M30-35, UniProt A0A1Y0KY79); type: biochemical
Procedure: as §1

[9] = tested on: VsHdaH (1b); type: biochemical, Vibrio sp.
[10] = target: RwDmhA (1b) (Rhizorhabdus wittichii, UniProt A0A067XIQ6); type: biochemical
[11] = tested on: RsPrpH (1b); assay: Substrate screening assay (acyl-peptide-AMC); type: biochemical, Rhizorhabdus sp.
[12] = substrate screening, mean of two measurements
[13] = substrate screening, measurement 1 of two
[14] = substrate screening, measurement 2 of two

“QPKKhex (QPKK-{AMC}; not fully specified (residue 4); printed as QPKKhex; also: hexanoyl-lysine (which Lys not given here); UniProt P04637 317-320, looked up, fragment)” was tested, and the “RFU means, LpApaH (3)” value [1] was 57.5 RFU, the “RFU*2 means, LpApaH (3)” value [1] was 115 RFU*2 and the “[AMC] (nM), LpApaH (3), means” value [1] was 56.15 nM. The “RFU means, KpHdaH (1b)” value ([2]; means of two measurements) was 92 RFU, the “RFU*2 means, KpHdaH (1b)” value ([2]; means of two measurements) was 184 RFU*2 and the “[AMC] (nM), KpHdaH (1b), means” value [2, 12] was 89.84 nM. The “[AMC] (nM), KpHdaH (1b)” value [2, 13] was 166.02 nM, the “[AMC] (nM), KpHdaH (1b)” value [2, 14] was 13.67 nM and the “RFU means, controls” value [3] was 3600.5 RFU. For the same substance, the “RFU*2, controls” value [3] was 6176 RFU*2 and 8226 RFU*2, the “RFU*2 means, controls” value [3] was 7201 RFU*2 and the “RFU, controls” value [3] was 3088 RFU and 4113 RFU. For the same substance, the “[AMC] (nM), controls, means” value [4] was 3516.11 nM, the “RFU means, LcApaH (3)” value [5] was 70 RFU and the “RFU*2 means, LcApaH (3)” value [5] was 140 RFU*2. The “[AMC] (nM), LcApaH (3), means” value [5] was 68.36 nM, the “RFU means, VcHdaH (5b)” value ([6]; means of two measurements) was 50.5 RFU and the “RFU*2 means, VcHdaH (5b)” value ([6]; means of two measurements) was 101 RFU*2. For the same substance, the “[AMC] (nM), VcHdaH (5b), means” value [6, 12] was 49.32 nM, the “RFU means, BsAcuC (2c)” value ([7]; means of two measurements) was 1487.5 RFU and the “RFU*2 means, BsAcuC (2c)” value ([7]; means of two measurements) was 2975 RFU*2. For the same substance, the “[AMC] (nM), BsAcuC (2c), means” value [7, 12] was 1452.64 nM, the “RFU*2, BsAcuC (2c)” value ([7]; two measurements, single values) was 3440 RFU*2 and 2510 RFU*2 and the “RFU means, PsApaH (4)” value ([8]; means of two measurements) was 94.5 RFU. The “RFU*2 means, PsApaH (4)” value ([8]; means of two measurements) was 189 RFU*2, the “[AMC] (nM), PsApaH (4), means” value [8, 12] was 92.29 nM and the “[AMC] (nM), PsApaH (4)” value [8, 13] was 125.00 nM. For the same substance, the “[AMC] (nM), PsApaH (4)” value [8, 14] was 59.57 nM, the “RFU means, VsHdaH (1b)” value ([9]; means of two measurements) was 66.5 RFU and the “RFU*2 means, VsHdaH (1b)” value ([9]; means of two measurements) was 133 RFU*2. The “[AMC] (nM), VsHdaH (1b), means” value [9, 12] was 64.94 nM, the “[AMC] (nM), VsHdaH (1b)” value [9, 13] was 35.16 nM and the “[AMC] (nM), VsHdaH (1b)” value [9, 14] was 94.73 nM. The “RFU means, RwDmhA (1b)” value [10] was 55 RFU, the “RFU*2 means, RwDmhA (1b)” value [10] was 110 RFU*2 and the “[AMC] (nM), RwDmhA (1b), means” value [10] was 53.71 nM. The “RFU means, RsPrpH (1b)” value [11] was -23.5 RFU, the “RFU*2 means, RsPrpH (1b)” value [11] was -47 RFU*2 and the “[AMC] (nM), RsPrpH (1b), means” value [11] was -22.95 nM.
